From patent publication US20190023748A1 (NAVIGEN, published 2019)
Bridge positions count the residues as written; N and C are the ends. Square brackets hold non-standard residues; d marks the D form. Primed or numbered codes have the meaning given here. Side chains are listed from the residue outwards. PEG4″ = PEG chain having 4 ethylene glycol repeat units; 4‑arm scaffold = not defined here

B1: Palmitate-conjugated PIE12-trimer (peptide)
peptide: Ac-[dH][dP][dC][dD][dY][dP][dE][dW][dQ][dW][dL][dC][dE][dL]G[dK]([PEG4″-4‑arm scaffold])-NH2
modifications: disulfide 3-12 (inferred); reading uncertain; also: trimer: three PIE12 monomers on 4-arm scaffold, fourth arm PEG24 with D-cysteine bridge carrying palmitate
B2: CPT24-5 kD (peptide)
peptide: Ac-[dH][dP][dC][dD][dY][dP][dE][dW][dQ][dW][dL][dC][dE][dL]G[dK]([PEG4″-4‑arm scaffold])-NH2
modifications: disulfide 3-12 (inferred); reading uncertain; also: PIE12 trimer on 4-arm scaffold, fourth arm 5 kDa linear polydisperse PEG with thiocholesterol
B3: 40 kD PEG-PEG24-PIE12 trimer (peptide)
peptide: Ac-[dH][dP][dC][dD][dY][dP][dE][dW][dQ][dW][dL][dC][dE][dL]GK-NH2
modifications: disulfide 3-12 (inferred); not fully specified (residue 16); also: trimer: three PIE12 monomers on 4-arm scaffold, fourth arm PEG24 carrying 40 kDa Y-branched PEG

What was measured:
Test in all cases: cell-based or functional assay
[1] = molecular target: HIV-1 gp41 of strain JRFL (HIV-1 strain JRFL)
[2] = molecular target: T1, HIV-1 gp41 of strain HXB2 (HIV-1 strain HXB2, UniProt P04578 512-856)
[3] = molecular target: HIV-1 gp41 of strain JRFL (HIV-1 strain JRFL); remark: listed apart in the source
[4] = molecular target: T1, HIV-1 gp41 of strain HXB2; remark: listed apart in the source

Binder	fold increase in potency against unconjugated PIE12-trimer (JRFL) [1]	fold increase in potency against unconjugated PIE12-trimer (HXB2) [2]	Antiviral potency, IC50, JRFL pseudovirion entry assay [3]	Antiviral potency, IC50, HXB2 pseudovirion entry assay [4]	fold reduction of potency against unconjugated PIE12-trimer (JRFL) [1]	fold reduction of potency against unconjugated PIE12-trimer (HXB2) [2]
B1	3 to 4 fold	3 to 4 fold	540 pM	225 pM	–	–
B2	–	–	26 pM	–	–	–
B3	–	–	71000 pM	9500 pM	34 fold	13 fold
